Paper PMC10587035 (Discover Mental Health, 2023)

Tests used:
human OT-R = target: T1, human OT-R (Homo sapiens, UniProt P30559); test: In vitro oxytocin receptor activation assay (intracellular Ca2+ mobilization, Fluo-4); format: cell-based; settings: HEK293 cells expressing human OT-R; ATP 10^-4 M as positive control; IgG applied without OT
T1 construct: expressed in transfected cells; host or cells: HEK293, stably transfected
T1 sequence (P30559 1-389): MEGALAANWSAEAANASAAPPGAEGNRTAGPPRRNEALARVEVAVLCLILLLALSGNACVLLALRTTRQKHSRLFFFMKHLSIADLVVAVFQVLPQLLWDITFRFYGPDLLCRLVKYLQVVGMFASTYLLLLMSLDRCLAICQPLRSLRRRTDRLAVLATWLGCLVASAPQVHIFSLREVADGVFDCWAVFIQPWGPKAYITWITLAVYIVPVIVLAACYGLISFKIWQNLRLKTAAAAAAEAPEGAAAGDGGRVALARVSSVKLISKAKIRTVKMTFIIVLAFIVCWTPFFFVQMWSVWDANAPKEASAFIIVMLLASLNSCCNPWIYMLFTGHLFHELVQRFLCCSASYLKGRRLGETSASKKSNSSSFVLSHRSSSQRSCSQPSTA
Method: Cells were grown on DMEM medium (Gibco, Thermo Fisher Scientific) with 10% FBS and 0.6% Penicillin/Streptomycin (Merck). To prepare assay plates, cell line was treated with 0.25% trypsin-EDTA (Gibco), cell pellet was resuspended in medium and filed in a flat clear bottom black 96-microwell plate (Greiner Bio-One, Les Ulis, France) at a rate of 50000 cells per well, which was coated during 1 h at 37°C with 100µg/mL of Poly-L-Lysin (Merck) and 1 h with 100µg/mL of Collagen I (Institut de Biotechnologie Jacques Boy, Reims, France). The microplate was incubated 24 hours at 37°C with 5% of CO2.
Briefly, confluent cells were incubated 45 min at 37°C with 2 µM Fluo-4 acetoxymethyl ester (AM) calcium dye (Life Technologies, Villebon-sur-Yvette, France) in complete HBSS, washed twice and incubated in 200 µL of the same complete medium at 37°C for 20 min. Fluorescence was recorded using a Flexstation III fluorescence microplate reader system (Molecular Devices, Saint-Grégoire, France) during 180 s with an excitation wavelength of 485 nm, an emission wavelength of 525 nm and a cutoff filter of 515 nm. […]
Ca^2+ releasing kinetics were determined, as well as area under curve, the maximal fluorescence peak and the time for which this maximum is reached. Fluorescence data were calculated as mean +/- SEM.

[1] = target: human oxytocin receptor, stably transfected in HEK293 cells (human) (UniProt P30559)
[2] = target: green-fluorescence protein (GFP)-labeled human OT-R in HEK293 cells (human) (UniProt P30559)

Chain of oxytocin (P01178 whole entry, looked up): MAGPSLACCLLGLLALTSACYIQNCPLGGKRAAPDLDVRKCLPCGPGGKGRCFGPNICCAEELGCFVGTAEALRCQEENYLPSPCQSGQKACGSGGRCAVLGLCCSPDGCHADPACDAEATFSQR

intracellular Ca2+ mobilization (result in words) (human OT-R) | EC50 of Ca2+ release in OT-R expressing cells, OT dose-response with OT preincubated with plasma IgG of aggressors (OT/IgG IC, fixed IgG 840 nM) [1] | EC50 of Ca2+ release in OT-R expressing cells, OT dose-response with OT preincubated with plasma IgG of controls (OT/IgG IC, fixed IgG 840 nM) [1] | intracellular Ca2+ mobilization in HEK293 cells stably transfected with human OT-R, OT alone at 10^-7 M (fold over basal levels) [1] | half-time internalization rate of GFP-labeled OT-R (membrane/cytoplasmic fluorescence, exponential decay model), OT alone [2] | half-time internalization rate of GFP-labeled OT-R (membrane/cytoplasmic fluorescence, exponential decay model), OT in immune complex with plasma IgG of aggressors [2] | half-time internalization rate of GFP-labeled OT-R (membrane/cytoplasmic fluorescence, exponential decay model), OT in immune complex with plasma IgG of controls [2] | Compound
mild increase | – | – | – | – | – | – | Nc1ncnc2c1ncn2[C@@H]1O[C@H](COP(=O)(O)OP(=O)(O)OP(=O)(O)O)[C@@H](O)[C@H]1O [ATP, adenosine triphosphate]
– | 6.1 nM | 3.1 nM | 3.5 | 16.7 min | 23.3 min | 6.4 min | oxytocin (from UniProt P01178 20-28) (peptide)
